The target of test [1] is T1, human LOX1 on cells (human LOX1 transfected CHO TREX cells) (human, UniProt P78380 1-273). Nature of the test: cell-based or functional assay.
In a further test the target is T2, Human CLEC-7A (Dectin-1) (human, UniProt Q9BXN2-2 66-201, limits assumed).
T2 construct: Bought protein; also called C-type lectin domain family 7 member A
T2 sequence (looked up): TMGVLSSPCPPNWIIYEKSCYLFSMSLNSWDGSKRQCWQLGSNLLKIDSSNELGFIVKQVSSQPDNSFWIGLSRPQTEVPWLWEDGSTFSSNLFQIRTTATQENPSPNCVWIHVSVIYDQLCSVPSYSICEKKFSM
Description: IgG binding ELISA on coated antigen, absorbance at 450 nm.

Another test concerns the target T3, Human CLEC-1A (human, UniProt Q8NC01 74-280, limits assumed).
T3 construct: Bought protein; also called C-type lectin domain family 1 member A
T3 sequence (looked up): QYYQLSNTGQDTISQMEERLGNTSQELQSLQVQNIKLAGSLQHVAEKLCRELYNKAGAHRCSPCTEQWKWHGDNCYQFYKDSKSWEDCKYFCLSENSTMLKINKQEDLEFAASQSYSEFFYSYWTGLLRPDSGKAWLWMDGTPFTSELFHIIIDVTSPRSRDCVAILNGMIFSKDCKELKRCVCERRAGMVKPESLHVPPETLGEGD
The test is described as above.

In a further test the target is T4, Human CLEC-4L (DC-SIGN) (human, UniProt Q9NNX6 62-404).
T4 construct: Bought protein; also called C-type lectin domain family 4 member L
T4 sequence (looked up): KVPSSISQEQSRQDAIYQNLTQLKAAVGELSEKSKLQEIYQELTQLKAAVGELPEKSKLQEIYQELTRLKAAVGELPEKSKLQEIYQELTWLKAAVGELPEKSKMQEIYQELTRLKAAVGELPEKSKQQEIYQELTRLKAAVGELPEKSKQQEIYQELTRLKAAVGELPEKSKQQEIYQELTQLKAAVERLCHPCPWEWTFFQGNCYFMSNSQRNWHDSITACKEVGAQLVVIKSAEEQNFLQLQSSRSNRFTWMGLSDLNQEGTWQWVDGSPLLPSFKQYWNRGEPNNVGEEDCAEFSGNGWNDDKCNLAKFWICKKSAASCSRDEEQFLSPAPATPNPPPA
Described as above.

In a further test the target is T5, Human CLEC-1B (CLEC-2) (human, UniProt Q9P126 58-229, limits assumed).
T5 construct: Bought protein; also called C-type lectin domain family 1 member B
Described as above.

The target in the next test is T6, Human SR-A1 (MSR) (human, UniProt P21757 77-451).
T6 construct: Bought protein; also called Macrophage scavenger receptor types I and II
T6 sequence (looked up): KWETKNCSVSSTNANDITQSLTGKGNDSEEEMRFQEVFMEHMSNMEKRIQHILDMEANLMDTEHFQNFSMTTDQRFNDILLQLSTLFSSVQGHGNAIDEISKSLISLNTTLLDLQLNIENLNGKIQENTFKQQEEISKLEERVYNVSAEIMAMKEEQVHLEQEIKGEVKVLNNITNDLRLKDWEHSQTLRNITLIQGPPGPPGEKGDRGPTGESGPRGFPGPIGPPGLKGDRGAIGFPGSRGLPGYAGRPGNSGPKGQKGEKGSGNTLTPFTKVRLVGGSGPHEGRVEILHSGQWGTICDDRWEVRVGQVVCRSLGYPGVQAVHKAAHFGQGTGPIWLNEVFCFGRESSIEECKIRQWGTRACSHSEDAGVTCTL
The test is described as above.

The target of the next test is T7, Human SR-B3 (CD36) (human, UniProt P16671 30-439).
T7 construct: Bought protein; also called Platelet glycoprotein 4
Described as above.

Test [2] addresses T1, human LOX1 on cells (human LOX1 …). Description: saturation binding of DyLight 649 labelled antibody on hLOX1 CHO TREX cells (FMAT).
The target is the same in test [3]. Nature of the test: competition with DyLight 649 oxLDL on human LOX1 CHO TREX cells, FMAT.
Test [4] shares this target. Nature of the test: competition with DyLight 649 AGE-BSA on human LOX1 CHO TREX cells, FMAT.
Test [5] concerns the target T8, recombinant human LOX1 (R&D Systems) (human, UniProt P78380 61-273). Nature of the test: competition with biotin CRP on plate-bound recombinant human LOX1, DELFIA.
Test [6] addresses T9, human LOX1 SNP K167N variant on cells (K167N SNP transfected CHO TREX cells) (human, UniProt P78380 1-273).
T9 construct: whole, on cells; also called hLOX1 K167N; K167N hLOX1 CHO
Description: competition with DyLight 649 oxLDL on human LOX1 K167N CHO TREX cells, FMAT.

Test [7] concerns the target T1, human LOX1 on cells (human LOX1 …). Description: competition with DyLight 649 AGE-BSA on hLOX1 CHO TREX cells (FMAT); row label not given, assay assigned by block order of Table 5.
Test [8] concerns the target T8, recombinant human LOX1 (R&D Systems). Nature of the test: competition with biotin CRP on immobilised recombinant hLOX1 (DELFIA); row label not given, assay assigned by block order of Table 5.
Test [9] concerns the target T9, human LOX1 SNP K167N variant on cells …. Description: competition with DyLight 649 oxLDL on K167N hLOX1 CHO TREX cells (FMAT); row label not given, assay assigned by block order of Table 5.
The target in test [10] is T1, human LOX1 on cells (human LOX1 …). Description: competition with DyLight 649 oxLDL on hLOX1 CHO TREX cells (FMAT); row label not given, assay assigned by block order of Table 5; first Mean/SD/n block of Table 2 (oxLDL/hLOX1 competition), n = 8.

T7 sequence (P16671 30-439 limits assumed): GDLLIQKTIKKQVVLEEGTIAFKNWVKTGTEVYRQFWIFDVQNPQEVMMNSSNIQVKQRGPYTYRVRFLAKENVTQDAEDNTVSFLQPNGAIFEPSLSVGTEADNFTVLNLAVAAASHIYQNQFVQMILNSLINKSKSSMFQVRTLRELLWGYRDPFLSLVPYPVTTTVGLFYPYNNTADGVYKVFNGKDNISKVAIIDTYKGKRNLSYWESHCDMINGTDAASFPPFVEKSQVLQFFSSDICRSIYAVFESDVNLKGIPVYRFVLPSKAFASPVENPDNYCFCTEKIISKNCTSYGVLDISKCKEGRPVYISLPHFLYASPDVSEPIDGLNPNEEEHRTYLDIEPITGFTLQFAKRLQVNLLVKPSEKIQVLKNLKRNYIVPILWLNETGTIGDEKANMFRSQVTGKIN
T5 sequence (Q9P126 58-229 limits assumed): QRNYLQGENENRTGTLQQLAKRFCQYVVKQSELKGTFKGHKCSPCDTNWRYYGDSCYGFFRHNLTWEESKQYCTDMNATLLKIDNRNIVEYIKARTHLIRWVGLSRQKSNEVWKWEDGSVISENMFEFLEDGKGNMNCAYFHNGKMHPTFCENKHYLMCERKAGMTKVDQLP

B1: LOX696 IgG1-TM (antibody, V domains shown)
VH: QVQLVQSGGGLVQPGRSLRLSCAASGFTFDDYAMHWVRQAPGKGLEWVSGISWNSGSIGYADSVKGRFTISRDNAKNSLYLQMNSLRAEDTAVYYCAREGNWNYDAFDIWGRGTTVTVSS
VL: QSALTQPASVSGSPGQSITISCTGTSSDVGGYNYVSWYQQHPGKAPKLMIYDVSNRPSGVSNRFSGSKSGNTASLTISGLQAEDEADYYCSSYTSSSTNWVFGGGTKLTVL
notes: Whole human IgG1-TM (L234F/L235E/P331S); Labelled with DyLight 649 in Assay 7; also called LOX10696-IgG1-TM; LOX10696 IgG1-TM
With B1, the “IC50 of inhibition of Cypher 5E oxLDL internalization in hLOX1 CHO TREX cells (row label not given; assay assigned by block order of Table 5)” value in test [1] came out at 0.35 nM. For the same molecule, the “IC50 of inhibition of oxLDL-dependent ROS generation in hLOX1 CHO TREX cells (row label not given; assay assigned by block order of Table 5)” value in [1] was determined as 6.22 nM. Moreover, the binding result with Human CLEC-7A (Dectin-1), in the test with Human CLEC-1A, with Human CLEC-4L (DC-SIGN), in the test with Human CLEC-1B (CLEC-2), with Human SR-A1 (MSR) and with Human SR-B3 (CD36) was “no binding (tested: 0.2 µg/mL (single concentration))” each time. Also, in test [2], the Kd is 3.3 nM. Further, the “IC50 (read off the curve)” value in [3] was approximately 0.3 nM; in [4], approximately 0.01 nM; in test [5], approximately 2 nM; in test [6], approximately 0.4 nM. Also, the IC50 in [7] amounted to 0.0873 nM; in [8], 4.69 nM; in [9], 0.246 nM; in test [10], 0.131 nM.

These data come from US20210347900A1 (AstraZeneca / MedImmune, published 2021).
